Series [1] has as its system T1, TAMRA-(Ahx)SRVGEEEHVYSFPNKQKSAEC-CONH2 (unphosphorylated Abl substrate derived from paxillin) on nanoparticles (Y-Abl TSACs).
T1 sequence: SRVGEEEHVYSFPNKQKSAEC

The test system of series [2] is MMP-7 substrate G-K(TAMRA)-G-V-P-L-S-L-T-M-G-C-CONH2 with 20 kDa PEG, on receptor (NeutrAvidin) TSACs (Example 3).
Series [3] concerns MMP-2 cleavable peptide substrate KGPLGVRGC, PEG on the lysine, on biotin and NeutrAvidin nanoparticles (Example 1).
Series [4] relates to MMP-7-MMP-2 tandem substrate TAMRA-G-K-G-V-P-L-S-L-T-M-Ahx-G-P-L-G-V-R-G-C-CONH2 with 20 kDa PEG, on ligand (biotin) TSACs (Example 3).
For series [5], the system named is MMP-2 substrate G-K(TAMRA)-G-P-L-G-V-R-G-C-CONH2 with 20 kDa PEG, on ligand (biotin) TSACs (Example 3).

recombinant catalytic domain of matrix metalloproteinase-2 (MMP-2; Biomol), sequence (chain, as listed by the source): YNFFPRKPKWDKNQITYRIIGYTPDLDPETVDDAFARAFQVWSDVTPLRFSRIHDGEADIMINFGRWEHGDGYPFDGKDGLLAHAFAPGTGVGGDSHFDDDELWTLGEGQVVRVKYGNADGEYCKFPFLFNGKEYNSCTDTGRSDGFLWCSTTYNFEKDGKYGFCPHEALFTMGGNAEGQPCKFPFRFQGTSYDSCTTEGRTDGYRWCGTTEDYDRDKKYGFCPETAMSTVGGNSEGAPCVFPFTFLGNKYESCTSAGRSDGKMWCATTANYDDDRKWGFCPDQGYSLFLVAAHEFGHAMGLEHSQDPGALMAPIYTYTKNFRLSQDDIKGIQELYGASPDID

For the substance Abl kinase (New England Biolabs), in series [1], the “TSAC assembly in DLS (hydrodynamic radius)” value is “Abl kinase rapidly directed assembly in solutions containing Y-Abl TSACs with SH2 TSACs” and the “lowest kinase amount giving quantifiable T2 relaxation enhancement (MRI)” value was “as little as 11 fentomoles of added kinase (110 pM kinase concentrations=0.05 U/µl”.

“recombinant catalytic domain of matrix metalloproteinase-2 (MMP-2; Biomol)”: in series [2], the “TSAC assembly in DLS” value is given as “addition of 0.4 µg MMP-7 induces assembly, while 0.4 µg MMP-2 cannot”. In series [3], the “TSAC assembly (extinction at 600 nm, AFM)” value is “The TSACs with the scrambled peptide exhibit markedly decreased assembly compared to the specific peptide sequence” and the “lowest MMP-2 concentration detected by T2 relaxation (MRI)” value is recorded as “TSACs at a 10 pM concentration were sensitive to at least 170 ng/ml (9.4 U/ml) of MMP-2”. In addition, the “hydrodynamic radius increase in DLS” value in series [4] is given as “Hydrodynamic radii increased more than 5-fold in the presence of either enzyme or both enzymes”. The “TSAC assembly in DLS” value in series [5] is reported as “Addition of 0.4 µg MMP-2 actuates TSAC assembly, while 0.4 µg MMP-7 or no enzyme is insufficient”.

(Values after patent US20090246142.)
